Assay results: article PMC11266248, “Production, purification, and quality assessment of borrelial proteins CspZ from Borrelia burgdorferi and FhbA from Borrelia hermsii” (Applied Microbiology and Biotechnology, 2024)

Target: T1, purified human complement factor H from human plasma/serum (human, UniProt P08603 19-1231)
T1 construct: human complement factor H, serum glycoprotein of 20 SCR domains (NCBI gene number 3075); also called FH; Human purified FH; source: bought: Sigma/Merck C5813 (batch SLCP3577), purified from human plasma; provided by Prof; Clark
Assay: SPR; Biacore T100, CM5 chip; FH (750 RU), rFHL-1 or rFH15-20 (200 RU) amine-coupled as ligands; CspZ or FhbA as analytes; PBS with 0.05% Tween20, 25 °C, 30 µl/min; single-cycle and multiple-cycle kinetics, Langmuir 1:1 model; in duplicate
Settings: both partners purified

T1 sequence (P08603 19-1231): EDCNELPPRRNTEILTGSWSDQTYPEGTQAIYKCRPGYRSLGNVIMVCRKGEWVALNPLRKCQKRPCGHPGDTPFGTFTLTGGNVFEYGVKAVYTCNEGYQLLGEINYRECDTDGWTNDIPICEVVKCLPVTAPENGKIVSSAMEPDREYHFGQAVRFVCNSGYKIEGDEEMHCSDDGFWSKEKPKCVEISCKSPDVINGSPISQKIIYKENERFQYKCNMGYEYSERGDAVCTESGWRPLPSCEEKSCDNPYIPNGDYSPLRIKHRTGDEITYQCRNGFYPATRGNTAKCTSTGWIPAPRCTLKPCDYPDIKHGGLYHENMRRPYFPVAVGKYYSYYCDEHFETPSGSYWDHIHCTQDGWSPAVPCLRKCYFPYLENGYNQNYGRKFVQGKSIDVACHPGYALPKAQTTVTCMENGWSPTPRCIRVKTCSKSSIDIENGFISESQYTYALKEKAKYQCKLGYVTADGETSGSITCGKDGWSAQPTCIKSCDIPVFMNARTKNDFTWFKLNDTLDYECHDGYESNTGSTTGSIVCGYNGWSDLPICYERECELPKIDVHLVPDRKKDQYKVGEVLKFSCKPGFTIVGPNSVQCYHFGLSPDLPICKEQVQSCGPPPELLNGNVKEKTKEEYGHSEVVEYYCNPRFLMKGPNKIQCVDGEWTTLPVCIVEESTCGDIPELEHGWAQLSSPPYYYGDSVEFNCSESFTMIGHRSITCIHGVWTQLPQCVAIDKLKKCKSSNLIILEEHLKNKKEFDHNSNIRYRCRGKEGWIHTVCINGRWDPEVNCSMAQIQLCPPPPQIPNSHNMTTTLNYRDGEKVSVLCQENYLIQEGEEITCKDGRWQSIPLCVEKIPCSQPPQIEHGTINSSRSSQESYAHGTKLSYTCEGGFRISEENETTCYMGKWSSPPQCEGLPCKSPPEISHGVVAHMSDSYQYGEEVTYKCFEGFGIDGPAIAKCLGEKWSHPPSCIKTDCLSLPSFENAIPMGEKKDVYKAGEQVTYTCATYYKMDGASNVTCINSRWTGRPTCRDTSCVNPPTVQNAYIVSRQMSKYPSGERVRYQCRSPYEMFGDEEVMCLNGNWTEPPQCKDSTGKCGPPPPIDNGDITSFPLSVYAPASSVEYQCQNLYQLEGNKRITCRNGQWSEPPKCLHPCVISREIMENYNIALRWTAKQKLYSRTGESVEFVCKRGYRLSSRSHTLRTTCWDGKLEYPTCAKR

B1: CspZ from Borrelia burgdorferi sensu stricto (complement regulator-acquiring surface protein 2) (natural protein)
chain: DVSRLNQRNINELKIFVEKAKYYSIKLDAIYNECTGAYNDIMTYSEGTFSDQSKVNQAISIFKKDNKIVNKFKELEKIIEEYKPMFLSKLIDDFAIELDQAVDNDVSNARHVADSYKKLRKSVVLAYIESFDVISSKFVDSKFVEASKKFVNKAKEFVEENDLIALECIVKTIGDMVNDREINSRSRYNNFYKKEADFLGAAVELEGAYKAIKQTLL
notes: CspZ (BbCRASP-2/BBH06), surface lipoprotein of Borrelia burgdorferi sensu stricto (NCBI txid139), encoded by cspZ on lp28-3; theoretical mass of the tagged protein 27.5 kDa, measured mass fits the predicted value without the N-terminal methionine; Two plasmids coding for N-terminally His6-tagged CspZ are named (pET-45(+) from Prof. Marconi, pETM-11 from Dr. Brangulis); also called BbCRASP-2; …
- Kd: 0.209 ± 0.141 nM
- koff: 5.31e-05 s⁻¹
- kon: 255000 M⁻¹ s⁻¹
